Experimental data as given in patent publication US20060286142A1.

Molecular target: biotinylated alkaline phosphatase
Assay: SPR (Spreeta) refractive index response to 2 ug/ml b-AP on gold channels saturated with GBP-SA then GBP, after exposure to foulants (fibrinogen, human serum albumin, plasma, platelets)

relative response to b-AP (% of GBP-SA control channel): 80 to 100%
Substance: His6 tagged fusion protein streptavidin-GBP (from UniProt P22629 13-133)
